Read-outs that look alike come from different tables or passages of the source.
How the values were obtained:
Experiment in all cases: EMSA
[1] = target: T1, FEN1 (hFEN1) (human, UniProt P39748 1-380)
[2] = target: T2, Dna2 (hDna2) (human, UniProt P51530 1-1060)
T2 sequence: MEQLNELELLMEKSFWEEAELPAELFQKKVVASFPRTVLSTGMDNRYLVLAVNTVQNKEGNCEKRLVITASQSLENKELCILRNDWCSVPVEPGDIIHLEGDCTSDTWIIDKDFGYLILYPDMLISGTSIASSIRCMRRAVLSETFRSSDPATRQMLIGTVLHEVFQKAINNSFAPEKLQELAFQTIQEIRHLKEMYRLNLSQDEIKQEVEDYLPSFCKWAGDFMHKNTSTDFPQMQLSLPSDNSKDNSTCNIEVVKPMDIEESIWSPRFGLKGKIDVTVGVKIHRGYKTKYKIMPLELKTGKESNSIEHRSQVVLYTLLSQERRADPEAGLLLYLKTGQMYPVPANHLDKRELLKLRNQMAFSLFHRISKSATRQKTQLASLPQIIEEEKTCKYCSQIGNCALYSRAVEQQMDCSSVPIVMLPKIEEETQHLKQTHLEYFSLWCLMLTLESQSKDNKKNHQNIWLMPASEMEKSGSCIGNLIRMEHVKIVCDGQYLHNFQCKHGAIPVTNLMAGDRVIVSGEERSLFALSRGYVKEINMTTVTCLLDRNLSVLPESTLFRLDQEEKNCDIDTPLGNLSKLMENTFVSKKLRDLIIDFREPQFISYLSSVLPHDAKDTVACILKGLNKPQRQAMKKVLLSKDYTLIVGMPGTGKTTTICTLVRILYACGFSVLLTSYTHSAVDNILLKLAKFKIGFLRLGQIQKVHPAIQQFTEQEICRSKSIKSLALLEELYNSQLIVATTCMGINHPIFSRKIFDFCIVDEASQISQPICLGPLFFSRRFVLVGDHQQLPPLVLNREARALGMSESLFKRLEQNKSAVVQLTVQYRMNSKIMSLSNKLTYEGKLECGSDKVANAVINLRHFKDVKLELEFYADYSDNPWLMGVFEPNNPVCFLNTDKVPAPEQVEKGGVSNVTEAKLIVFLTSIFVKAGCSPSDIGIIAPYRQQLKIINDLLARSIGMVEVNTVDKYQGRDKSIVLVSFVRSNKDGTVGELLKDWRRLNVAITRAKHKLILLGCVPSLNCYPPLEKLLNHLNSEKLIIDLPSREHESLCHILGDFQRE

[3] = target: T1, FEN1 (hFEN1); remark: listed apart in the source
[4] = target: T2, Dna2 (hDna2); remark: listed apart in the source
[5] = target: T1, FEN1 (hFEN1); remark: listed apart in the source
[6] = target: T2, Dna2 (hDna2); remark: listed apart in the source
[7] = target: Dna2 (hDna2);FEN1 (hFEN1) (human;human, UniProt P51530;P39748 1-1060;1-380, |)
Chain of Dna2 (hDna2);FEN1 (hFEN1) (P39748 whole entry, one chain of several): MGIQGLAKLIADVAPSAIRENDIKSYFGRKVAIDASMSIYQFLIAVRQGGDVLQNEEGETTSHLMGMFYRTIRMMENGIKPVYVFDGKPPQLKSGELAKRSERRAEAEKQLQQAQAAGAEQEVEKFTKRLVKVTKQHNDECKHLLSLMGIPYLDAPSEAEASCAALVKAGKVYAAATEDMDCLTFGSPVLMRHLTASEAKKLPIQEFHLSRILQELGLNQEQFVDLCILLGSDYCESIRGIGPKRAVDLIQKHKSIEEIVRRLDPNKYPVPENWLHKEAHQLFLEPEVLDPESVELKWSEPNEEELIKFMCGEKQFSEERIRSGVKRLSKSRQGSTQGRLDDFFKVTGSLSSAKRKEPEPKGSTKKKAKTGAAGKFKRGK

[8] = target: T2, Dna2 (hDna2); remark: listed apart in the source
[9] = target: T2, Dna2 (hDna2); remark: listed apart in the source
[10] = target: T2, Dna2 (hDna2); remark: listed apart in the source

T1 sequence (P39748 whole entry): as the sequence (P39748 whole entry, one chain of several) above

B1: 15 nt 5'-tail (T4:D2.15) (mixed)
DNA 1: ATACGCGCTATAACCCCCGTCCACCCGACGCCACCTCCTGC
DNA 2: GCAGGAGGTGGCGTCGGGTGGACGGG
binding result [1]: no binding

B2: 2 nt double flap (U1:T1:D1.2) (mixed)
DNA 1: GTCGTTTTACAACGACGTGACTGGG
DNA 2: GCCCAGTCACGTCGTTGTAAAACGGGTCGTGACTGGGAAAACCCTGGCG
DNA 3: CGCCAGGGTTTTCCCAGTCACGACCA
binding result [2]: no binding

B3: 15 nt double flap (U1:T1:D1.15) (mixed)
DNA 1: TAATTCACTGGCCGTCGTTTTACAACGACGTGACTGGG
DNA 2: GCCCAGTCACGTCGTTGTAAAACGGGTCGTGACTGGGAAAACCCTGGCG
DNA 3: CGCCAGGGTTTTCCCAGTCACGACCA
binding result [3]: binds

B4: 30 nt double flap (U1:T1:D1.30) (mixed)
DNA 1: TTCACGCCTGTTAGTTAATTCACTGGCCGTCGTTTTACAACGACGTGACTGGG
DNA 2: GCCCAGTCACGTCGTTGTAAAACGGGTCGTGACTGGGAAAACCCTGGCG
DNA 3: CGCCAGGGTTTTCCCAGTCACGACCA
binding result [3]: binds | binding result [4]: binds

B5: 5 nt double flap (U1:T1:D1.5) (mixed)
DNA 1: GCCGTCGTTTTACAACGACGTGACTGGG
DNA 2: GCCCAGTCACGTCGTTGTAAAACGGGTCGTGACTGGGAAAACCCTGGCG
DNA 3: CGCCAGGGTTTTCCCAGTCACGACCA
binding result [3]: binds | binding result [2]: no binding

B6: 20 nt double flap (U1:T1:D1.20) (mixed)
DNA 1: TTAGTTAATTCACTGGCCGTCGTTTTACAACGACGTGACTGGG
DNA 2: GCCCAGTCACGTCGTTGTAAAACGGGTCGTGACTGGGAAAACCCTGGCG
DNA 3: CGCCAGGGTTTTCCCAGTCACGACCA
binding result [3]: binds

B7: 10 nt double flap (U1:T1:D1.10) (mixed)
DNA 1: CACTGGCCGTCGTTTTACAACGACGTGACTGGG
DNA 2: GCCCAGTCACGTCGTTGTAAAACGGGTCGTGACTGGGAAAACCCTGGCG
DNA 3: CGCCAGGGTTTTCCCAGTCACGACCA
binding result [3]: binds

B8: 30 nt double flap (U2:T3:D2.30) (mixed)
DNA 1: TTCTACTTCCAATTGATACGCGCTATAACCCCCGTCCACCCGACGCCACCTCCTGC
DNA 2: GCAGGAGGTGGCGTCGGGTGGACGGGATTGAAATTTAGGCTGGCACGGTCG
DNA 3: CGACCGTGCCAGCCTAAATTTCAATT
binding result [5]: binds | binding result [6]: binds | binding result [7]: binds

B9: 30 nt 5'-tail (T4:D2.30) (mixed)
DNA 1: TTCTACTTCCAATTGATACGCGCTATAACCCCCGTCCACCCGACGCCACCTCCTGC
DNA 2: GCAGGAGGTGGCGTCGGGTGGACGGG
binding result [1]: no binding | binding result [8]: binds

B10: 30 nt flap, 2 nt gap (U4:T3:D2.30) (mixed)
DNA 1: TTCTACTTCCAATTGATACGCGCTATAACCCCCGTCCACCCGACGCCACCTCCTGC
DNA 2: GCAGGAGGTGGCGTCGGGTGGACGGGATTGAAATTTAGGCTGGCACGGTCG
DNA 3: CGACCGTGCCAGCCTAAATTTCA
binding result [9]: binds

B11: 30 nt flap, 5 nt gap (U3:T3:D2.30) (mixed)
DNA 1: TTCTACTTCCAATTGATACGCGCTATAACCCCCGTCCACCCGACGCCACCTCCTGC
DNA 2: GCAGGAGGTGGCGTCGGGTGGACGGGATTGAAATTTAGGCTGGCACGGTCG
DNA 3: CGACCGTGCCAGCCTAAATT
binding result [10]: binds

Reference: PMC3413157
